This passage reports koff results from paper PMC11210195 (2024).

Test [1] deals with mAb1 WT (human IgG1 Fc WT) (human, UniProt P01857 = IgG part). Nature of the test: SPR. A general note: Surface plasmon resonance follows binding to a sensor surface in real time, without labels.
For another test, the target named is mAb1 WT-AAA (human, UniProt P01857 = IgG part). Nature of the test: SPR.

B1: TRIM21 PRYSPRY domain (domain or fragment)
chain: GLKKMLRTCAVHITLDPDTANPWLILSEDRRQVRLGDTQQSIPGNEERFDSYPMVLGAQHFHSGKHYWEVDVTGKEAWDLGVCRDSVRRKGHFLLSSKSGFWTIWLWNKQKYEAGTYPQTPLHLQVPPCQVGIFLDYEAGMVSFYNITDHGSLIYSFSECAFTGPLRPFFSPGFNDGGKNTAPLTLCPLNIGSQGSTDY
modifications: biotinylated where it was captured via monovalent streptavidin
Consider B1, for which the results for the koff (in test [1]; with mAb1 WT-AAA) were 0.0994 s⁻¹ and 0.105 s⁻¹, respectively.
